Results on seven molecules are retold here after patent US20250101437, “[…] FOR […] VARIANTS OF A TARGET ANALYTE, METHODS OF MAKING AND USES […]” (McMaster University, published 2025).

Data set [1] deals with SARS-CoV-2 spike S1 subunit, original Wuhan (SARS-CoV-2 (Wuhan), UniProt P0DTC2 P0DTC2:16-685). As to the kind of experiment: filter; dot blot. The settings on record: tags: Sino Biological 40591-V08B1, label: 5'-32P.
Data set [2] has as its target T1, SARS-CoV-2 spike S1 subunit, original Wuhan (SARS-CoV-2 (Wuhan), UniProt P0DTC2 P0DTC2:16-685). Description: competition. The note with it: tags: Sino Biological 40591-V08B1.
A further data set deals with MERS-CoV spike RBD (MERS-CoV, UniProt K9N5Q8 K9N5Q8:367-606). Description: filter. The note with it: label: 5'-32P.
Another data set deals with SARS-CoV-1 spike RBD (SARS-CoV-1, UniProt P59594 P59594:306-527). As to the kind of experiment: filter. The settings on record: label: 5'-32P.
Data set [3] has as its target SARS-CoV-2 spike (WH) on pseudotyped lentivirus (SARS-CoV-2 (Wuhan-Hu-1), UniProt P0DTC2 P0DTC2:14-1273). Description: filter. The note with it: protein: virion; tags: pseudotyped lentivirus, BEI NR-52948 kit; chain copies: 3; label: 5'-32P; four-way junction (proposed).
For a further data set, the target named is SARS-CoV-1 spike protein (SARS-CoV-1, UniProt P59594 P59594:14-1195). Description: filter. The settings on record: label: 5'-32P.
In data set [4] the target is T1, SARS-CoV-2 spike S1 subunit, original …. As to the kind of experiment: filter; dot blot. The note with it: tags: Sino Biological 40591-V08B1; label: 5'-32P.
Data set [5] deals with SARS-CoV-2 spike trimer, original Wuhan (WHS) (SARS-CoV-2 (Wuhan-Hu-1), UniProt P0DTC2 P0DTC2:14-1213). As to the kind of experiment: filter; […]; binding buffer ([…], Mg, Tween-20, pH 7.4). The note with it: tags: full-length trimeric spike, Expi293 cells, Ni-NTA purified; chain copies: 3 (stated trimeric); label: 5'-32P.
For the next data set, the target named is alpha-thrombin (Homo sapiens, UniProt P00734;P00734 P00734:328-363,P00734:364-622). Description: filter; 50 nM protein. The settings on record: tags: Sigma-Aldrich; label: 5'-32P; four-way junction (proposed).
A further data set deals with Bovine serum albumin (Bos taurus, UniProt P02769 P02769:25-607). Description: filter; 50 nM protein. The settings on record: tags: Sigma-Aldrich; label: 5'-32P; four-way junction (proposed).
Bovine serum albumin, sequence (P02769 25-607, one chain of several): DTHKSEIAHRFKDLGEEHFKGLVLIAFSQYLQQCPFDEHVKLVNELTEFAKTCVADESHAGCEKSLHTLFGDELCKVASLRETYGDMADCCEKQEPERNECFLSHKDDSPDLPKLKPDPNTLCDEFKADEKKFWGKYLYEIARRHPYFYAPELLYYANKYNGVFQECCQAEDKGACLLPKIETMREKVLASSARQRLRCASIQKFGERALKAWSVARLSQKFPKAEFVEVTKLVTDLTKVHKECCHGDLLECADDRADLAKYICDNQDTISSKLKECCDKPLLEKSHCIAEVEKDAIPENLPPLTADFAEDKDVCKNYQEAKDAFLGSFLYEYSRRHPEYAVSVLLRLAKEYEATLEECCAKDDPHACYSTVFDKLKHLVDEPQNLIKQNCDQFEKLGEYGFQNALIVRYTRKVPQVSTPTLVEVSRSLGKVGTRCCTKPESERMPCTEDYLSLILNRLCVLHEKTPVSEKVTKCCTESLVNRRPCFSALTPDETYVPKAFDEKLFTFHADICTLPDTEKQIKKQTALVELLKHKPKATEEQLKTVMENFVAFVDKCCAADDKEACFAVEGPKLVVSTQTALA
A further data set addresses NL63 spike RBD (Human coronavirus NL63, UniProt Q6Q1S2 Q6Q1S2:481-616). As to the kind of experiment: filter; 50 nM protein. The note with it: label: 5'-32P; four-way junction (proposed).
Another data set deals with 229E spike RBD (Human coronavirus 229E, UniProt P15423 P15423:293-435). As to the kind of experiment: filter; dot blot; very weak binding. The note with it: label: 5'-32P; four-way junction (proposed).
229E spike RBD, sequence (P15423 293-435, one chain of several): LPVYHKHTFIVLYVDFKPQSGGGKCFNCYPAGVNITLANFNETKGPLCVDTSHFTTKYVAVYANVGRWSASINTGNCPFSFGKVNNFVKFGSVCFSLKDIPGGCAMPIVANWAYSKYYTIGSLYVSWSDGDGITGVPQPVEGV
A further data set has as its target OC43 spike RBD (Human coronavirus OC43, UniProt P36334 P36334:333-607). As to the kind of experiment: filter; dot blot; very weak binding. The note with it: label: 5'-32P; four-way junction (proposed).

Where only a bound is given, the exact number is not on record here.

OC43 spike RBD, sequence (P36334 333-607, one chain of several): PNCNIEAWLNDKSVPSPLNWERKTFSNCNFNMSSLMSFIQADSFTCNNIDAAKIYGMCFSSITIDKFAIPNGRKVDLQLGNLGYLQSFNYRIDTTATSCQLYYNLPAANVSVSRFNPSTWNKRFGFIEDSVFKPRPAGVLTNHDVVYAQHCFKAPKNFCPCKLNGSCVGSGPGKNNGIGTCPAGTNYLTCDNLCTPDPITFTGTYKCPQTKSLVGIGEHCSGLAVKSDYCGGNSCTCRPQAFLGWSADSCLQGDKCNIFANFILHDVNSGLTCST
NL63 spike RBD, sequence (Q6Q1S2 481-616, one chain of several): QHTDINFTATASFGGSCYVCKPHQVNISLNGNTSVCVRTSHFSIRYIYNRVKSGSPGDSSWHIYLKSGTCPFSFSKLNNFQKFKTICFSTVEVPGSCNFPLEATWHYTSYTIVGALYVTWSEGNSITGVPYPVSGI

B1: MSA52-T2 (ssDNA)
DNA: TTACGTCAAGGTGTCACTCCGTAGGGTTTGCTGGCGTCGGTCGTCTCTCGCGAAGCATCTCTTTGGCGTG
In general, Kd refers to the free concentration of one partner at which half of the binding sites on the other are occupied at equilibrium, for simple one-to-one binding. Turning to B1, the affinity in [1], expressed as Kd, was 53.4 nM.

B2: MSA52-T4 (ssDNA)
DNA: TTACGTCAAGGTGTCACTCCGTAGGGTTTGGCTCCGGGCCTGGCGTCGGTCGCGAAGCATCTCTTTGGCGTG
In [1], B2 displayed a Kd of 6 nM.

B3: Mutant Control (MC, shuffled MSA52) (ssDNA)
DNA: TCTTTCGTGCCATCCTGCGGGTGGCTGTCCGAGGCTGGTGGCTCTGCAAGTGCCACGCTTTATCTGAGGTTCGCCGGTA
For B3, the binding result in [2] is “no binding”.

B4: MSA52 (ssDNA)
DNA: TTACGTCAAGGTGTCACTCCGTAGGGTTTGGCTCCGGGCCTGGCGTCGGTCGTCTCTCGCGAAGCATCTCTTTGGCGTG
B4: the binding result with MERS-CoV spike RBD, in the data set with SARS-CoV-1 spike RBD, in the data set with alpha-thrombin, with Bovine serum albumin and with NL63 spike RBD was “no binding” throughout. Further, the dissociation constant (Kd) in [3] was 0.0184 nM; in the data set with SARS-CoV-1 spike protein, above 150 nM; in data set [4] it was 6.6 nM; in [5], 3.6 nM; with 229E spike RBD it was above 200 nM; with OC43 spike RBD it was above 200 nM.

B5: MSA52-T5 (ssDNA)
DNA: ACGCCAAGGTGTCACTCCGTAGGGTTTGGCTCCGGGCCTGGCGTCGGTCGCGAAGCATCTCCTTGGCGT
In [1] (four-way junction (proposed)), B5 returned a Kd of 5.5 nM.

B6: MSA52-T3 (ssDNA)
DNA: TTACGTCAAGGTGTCACTCCGTAGGGTTTGGCTCCGGGCCTGGCATCTCTTTGGCGTG
In data set [1], B6 gave a Kd of 94.8 nM.

B7: MSA52-T1 (ssDNA)
DNA: TTACGTCAAGGTGTCATTGGCTCCGGGCCTGGCGTCGGTCGTCTCTCGCGAAGCATCTCTTTGGCGTG
Turning to B7, in data set [1], binding was put at a Kd of 61.8 nM.
